Assay results from patent publication US20210252150A1 (VANDERBILT UNIVERSITY, published 2021).
Where a chain is given by its changes, count along the chain named. Where two headings read alike, the source gives them in different places.

Columns and labels:
[1] = target: T1, HA of A/South Carolina/1/1918 (H1N1) (influenza A virus (H1N1), UniProt Q9WFX3 18-529); assay: Octet (BLI) with HA
[2] = target: T2, HA of A/Hong Kong/1/1968 (H3N2) (influenza A virus (H3N2), UniProt Q91MA7 17-530); assay: Octet (BLI) with HA
[3] = target: HA of A/Japan/305/1957 (H2N2) (influenza A virus (H2N2), UniProt P03451 16-525); assay: Octet (BLI) with HA
[4] = target: T3, HA of A/turkey/Wisconsin/1/1966 (H9N2) (influenza A virus (H9N2), UniProt P03457 19-526); assay: Octet (BLI) with HA
[5] = target: T1, HA of A/South Carolina/1/1918 (H1N1); assay: ELISA (highest dilution tested 1/50,000)
[6] = target: T2, HA of A/Hong Kong/1/1968 (H3N2); assay: ELISA (highest dilution tested 1/50,000)
[7] = target: T4, HA of A/Singapore/1/1957 (H2) (influenza A virus (H2), UniProt Q67333 16-525); assay: ELISA, recombinant HA
[8] = target: T2, HA of A/Hong Kong/1/1968 (H3N2); assay: ELISA, recombinant HA
[9] = target: T3, HA of A/turkey/Wisconsin/1/1966 (H9N2); assay: ELISA, recombinant HA
[10] = target: T4, HA of A/Singapore/1/1957 (H2); assay: ELISA, recombinant HA; remark: listed apart in the source
[11] = target: T2, HA of A/Hong Kong/1/1968 (H3N2); assay: ELISA, recombinant HA; remark: listed apart in the source
[12] = target: T1, HA of A/South Carolina/1/1918 (H1N1); assay: BLI, Fab on immobilized biotinylated HA
[13] = target: T2, HA of A/Hong Kong/1/1968 (H3N2); assay: BLI, Fab on immobilized biotinylated HA
[14] = target: HA of A/Victoria/3/1975 (H3N2) (influenza A virus (H3N2), UniProt P03435 17-531); assay: BLI, Fab on immobilized biotinylated HA
[15] = target: HA of A/Perth/16/2009 (H3N2) (influenza A virus (H3N2), UniProt O11283 17-530); assay: BLI, Fab on immobilized biotinylated HA
[16] = target: T1, HA of A/South Carolina/1/1918 (H1N1); assay: BLI, Fab on immobilized biotinylated HA; remark: listed apart in the source
[17] = target: T2, HA of A/Hong Kong/1/1968 (H3N2); assay: BLI, Fab on immobilized biotinylated HA; remark: listed apart in the source
[18] = target: T4, HA of A/Singapore/1/1957 (H2); assay: ELISA
[19] = target: T4, HA of A/Singapore/1/1957 (H2); assay: ELISA; remark: listed apart in the source
[20] = target: T3, HA of A/turkey/Wisconsin/1/1966 (H9N2); assay: ELISA, recombinant HA; remark: listed apart in the source
[21] = target: T4, HA of A/Singapore/1/1957 (H2); assay: ELISA; remark: listed apart in the source
[22] = target: T4, HA of A/Singapore/1/1957 (H2); assay: ELISA; remark: listed apart in the source
[23] = target: T1, HA of A/South Carolina/1/1918 (H1N1); assay: BLI, 1:1 global fit; Table S2 of the text prints 46 for this strain

T1 sequence (Q9WFX3 18-529): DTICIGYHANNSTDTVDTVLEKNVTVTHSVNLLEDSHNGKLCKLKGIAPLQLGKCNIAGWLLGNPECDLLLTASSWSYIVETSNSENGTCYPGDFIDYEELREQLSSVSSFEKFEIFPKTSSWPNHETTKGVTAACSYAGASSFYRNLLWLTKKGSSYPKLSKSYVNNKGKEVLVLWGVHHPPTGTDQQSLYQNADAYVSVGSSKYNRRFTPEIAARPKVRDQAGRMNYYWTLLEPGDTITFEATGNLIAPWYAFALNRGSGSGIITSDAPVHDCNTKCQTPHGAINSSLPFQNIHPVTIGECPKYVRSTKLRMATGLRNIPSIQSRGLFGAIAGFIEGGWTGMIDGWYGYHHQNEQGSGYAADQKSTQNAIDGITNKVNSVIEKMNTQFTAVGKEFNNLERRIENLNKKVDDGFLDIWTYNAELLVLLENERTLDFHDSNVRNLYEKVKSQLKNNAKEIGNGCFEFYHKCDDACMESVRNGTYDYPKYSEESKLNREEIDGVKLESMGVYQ
T3 sequence (P03457 19-526 limits assumed): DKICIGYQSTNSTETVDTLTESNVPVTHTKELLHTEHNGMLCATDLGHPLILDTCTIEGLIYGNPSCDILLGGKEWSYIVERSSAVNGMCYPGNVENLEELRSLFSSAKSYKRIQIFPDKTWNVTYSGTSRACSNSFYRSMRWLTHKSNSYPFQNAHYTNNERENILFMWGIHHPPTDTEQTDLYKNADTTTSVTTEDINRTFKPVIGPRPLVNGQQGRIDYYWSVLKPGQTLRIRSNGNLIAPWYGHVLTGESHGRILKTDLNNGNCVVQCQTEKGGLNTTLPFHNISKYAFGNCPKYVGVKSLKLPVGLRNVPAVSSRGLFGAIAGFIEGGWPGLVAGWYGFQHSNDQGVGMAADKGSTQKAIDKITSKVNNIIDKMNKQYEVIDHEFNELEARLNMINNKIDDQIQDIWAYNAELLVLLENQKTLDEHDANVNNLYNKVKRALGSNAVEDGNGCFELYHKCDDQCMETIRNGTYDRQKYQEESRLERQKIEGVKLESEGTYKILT
HA of A/Victoria/3/1975 (H3N2), sequence (P03435 17-531 limits assumed): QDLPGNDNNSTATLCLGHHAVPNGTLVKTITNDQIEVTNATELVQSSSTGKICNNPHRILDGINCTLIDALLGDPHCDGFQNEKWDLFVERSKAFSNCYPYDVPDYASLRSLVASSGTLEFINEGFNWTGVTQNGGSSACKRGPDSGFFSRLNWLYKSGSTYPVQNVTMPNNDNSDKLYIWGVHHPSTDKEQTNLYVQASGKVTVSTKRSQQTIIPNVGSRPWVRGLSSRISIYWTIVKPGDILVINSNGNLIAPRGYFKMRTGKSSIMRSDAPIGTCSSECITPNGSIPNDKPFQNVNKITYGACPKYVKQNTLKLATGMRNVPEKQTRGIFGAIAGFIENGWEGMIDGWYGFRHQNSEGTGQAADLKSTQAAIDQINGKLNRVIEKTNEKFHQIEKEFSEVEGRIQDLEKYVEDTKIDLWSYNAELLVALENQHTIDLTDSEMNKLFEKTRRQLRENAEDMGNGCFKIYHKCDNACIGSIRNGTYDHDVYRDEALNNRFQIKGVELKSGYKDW

B1: H5.31 (antibody, V domains shown)
VH: EVQLVQSGGGLVQPGGSLRLSCEASRFTSSSYWITWVRQAPGKGLEWVANIKQDGSEKYFVDSVKGRFTISRDNASNSLYLQMSSLRAEDTAVYYCARGFLERLLLGRQGAYYYGMDVWGQGTTVTVSS
VL: DIQMTQSPSSLSASVGDRVTMTCRASQSISSSLNWYQQKPGKAPKLLIYAASNLQSGVPSRFSGSGSGTDFTLTISSLQPEDFATYYCQQSYTMPPELTFGGGTKVQIK
Binder B1 has a Kd [1] of 0.17 nM, a Kd [2] of 5.4 nM and a Kd [3] of 0.13 nM. For the same binder, the Kd [4] was 17 nM, the EC50 [5] was 0.031 µg/mL and the EC50 [6] was 0.024 µg/mL.

B2: H5.28 (antibody, V domains shown)
VH: EVQLVESGGGLVQPGGSLRLSCAASGFTFSTYWMTWVRQAPGKGLEWVANINQDGGEKYFVDSVKGRFTISRDNAKNSLFLQMNTLRAEDTAVYYCARGFLERLLLGRQGAYYYGMDVWGQGTTVTVSS
VL: B1 VL with T20S, S28I, T93S, M94T, Q107E
With B2 the Kd [1] was 0.11 nM, the Kd [2] was 75 nM and the Kd [3] was 0.19 nM. For the same binder, the Kd [4] was 65 nM, the EC50 [5] was 0.081 µg/mL and the EC50 [6] was 16 µg/mL.

B3: UCA (antibody, V domains shown)
VH: QVQLQESGPGLVKPSETLSLTCTVSGGSVSSGSYYWSWIRQPPGKGLEWIGYIYYSGSTNYNPSLKSRVTISVDTSKNQFSLKLSSVTAADTAVYYCARGTEDLGYCSGGSCPNHWGQGTLVTV
VL: not shown
B3 was tested, and the EC50 [7] was 0.07 µg/mL, the EC50 [8] was 0.054 µg/mL and the EC50 [9] was 0.359 µg/mL. The EC50 [10] was 0.028 µg/mL and the EC50 [11] was 0.021 µg/mL.

B4: FluA-20 UCA Fab (unmutated common ancestor of FluA-20) (Fab, V domains shown)
VH: B3 VH
VL: not shown
In the case of B4, the Kd [12] is reported as 937 nM, the Kd [13] is reported as 486 nM and the binding result [14] is reported as “no binding (tested: 2 µM)”. For the same binder, the binding result [15] was “no binding (tested: 2 µM)”, the Kd [16] was 937 nM and the Kd [17] was 486 nM.

B5: FluA-20 (hybridoma-produced IgG) (antibody, V domains shown)
VH: QVQLQESGPGLVKPSETLSLTCSVSGVSVTSDIYYWTWIRQPPGKGLEWIGYIFYNGDTNYNPSLKSRVTMSIDTSKNEFSLRLTSVTAADTAVYFCARGTEDLGYCSSGSCPNHWGQGTLVTVSS
VL: DIQMTQSPSSLSASIGDRVTITCRPSQNIRSFLNWFQHKPGKAPKLLIYAASNLQSGVPSRFSGSGSGTEFTLTIRSLQPEDFATYYCQQSYNTPPTFGQGTKVEIK
Binder B5 has an EC50 [18] of 0.18 µg/mL, an EC50 [19] of 0.007 µg/mL and an EC50 [9] of 0.063 µg/mL. It also gave an EC50 [10] of 0.009 µg/mL and an EC50 [20] of 0.022 µg/mL.

B6: rFluA-20 (recombinant FluA-20 IgG) (antibody, V domains shown)
VH: B5 VH
VL: B5 VL
B6 was tested, and the EC50 [21] was 0.011 µg/mL, the EC50 [22] was 0.011 µg/mL and the EC50 [7] was 0.178 µg/mL. For the same binder, the EC50 [9] was 0.193 µg/mL and the EC50 [20] was 0.016 µg/mL.

B7: FluA-20 Fab (Fab, V domains shown)
VH: B5 VH
VL: B5 VL
Work on B7 yielded a Kd [12] of 46 nM, a Kd [14] of 3460 nM and a Kd [16] of 46 nM. It also gave a Kd [23] of about 48 nM.
